# Test results from the supplement of paper PMC10567573.
# B1: TCEB3B (parent)
# chain: STTALGDKQRKANESKGTRESWDS
# Variants of: B1
# Test: protein stability index of a GFP-peptide fusion (GPS, HEK-293T) (PSI 1-6); higher = more stable
# Conditions: c terminus: a fixed tail appended
# 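Also: lentivirally expressed fusions sorted by FACS into six bins by GFP to DsRed ratio, PSI derived from sequencing read proportions per bin multiplied by bin number.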
row,Variant,protein stability index
1,STTALGDKQNKANESKGTRESWDS [R10N],4.14
2,STTALGDKQGKANESKGTRESWDS [R10G],4.55
3,STTAYGDKQRKANESKGTRESWDS [L5Y],3.37
4,STTANGDKQRKANESKGTRESWDS [L5N],4.14
5,STTARGDKQRKANESKGTRESWDS [L5R],4.03
6,STTAVGDKQRKANESKGTRESWDS [L5V],4.08
7,STTATGDKQRKANESKGTRESWDS [L5T],4.63
8,STTACGDKQRKANESKGTRESWDS [L5C],3.44
9,STTALGDKQRKANHSKGTRESWDS [E14H],3.88
10,STTALGDKQRKANRSKGTRESWDS [E14R],3.61
11,STTALGDKQRKANMSKGTRESWDS [E14M],3.65
12,STTALGDKQRKANNSKGTRESWDS [E14N],4.06
13,STTALGDKQRKANDSKGTRESWDS [E14D],3.89
14,STTALGDKQRKANTSKGTRESWDS [E14T],3.42
15,STTALGDKQRKANESKGTCESWDS [R19C],4.67
16,STTALGDKQRKANESKGTFESWDS [R19F],3.86
17,STTALGDKQRKANESKGTMESWDS [R19M],4.8
18,STTALGDKQRKANESKGTSESWDS [R19S],4.94
19,STTALGDKQRKANESKGTDESWDS [R19D],5.16
20,STTALGDKQRKANESKGTQESWDS [R19Q],4.49
21,STTALGDKQRKANESKGTWESWDS [R19W],4.17
22,STTALGDKQRKANESKGTAESWDS [R19A],4.95
23,STTALGDKQRKANESKGTKESWDS [R19K],4.21
24,DTTALGDKQRKANESKGTRESWDS [S1D],4.16

row,Variant,protein stability index
1,HTTALGDKQRKANESKGTRESWDS [S1H],3.64
2,NTTALGDKQRKANESKGTRESWDS [S1N],4.3
3,RTTALGDKQRKANESKGTRESWDS [S1R],3.88
4,CTTALGDKQRKANESKGTRESWDS [S1C],3.47
5,ITTALGDKQRKANESKGTRESWDS [S1I],3.58
6,ATTALGDKQRKANESKGTRESWDS [S1A],3.94
7,VTTALGDKQRKANESKGTRESWDS [S1V],4.06
8,TTTALGDKQRKANESKGTRESWDS [S1T],3.61
9,STTALGDKQRKVNESKGTRESWDS [A12V],3.88
10,STTALGDKQRKSNESKGTRESWDS [A12S],4.3
11,STTALGDKQRKFNESKGTRESWDS [A12F],3.76
12,STTALGDKQRKWNESKGTRESWDS [A12W],3.34
13,STTALGDKQRKCNESKGTRESWDS [A12C],3.99
14,STTALGDKQRKINESKGTRESWDS [A12I],3.63
15,STTALGDKQRKHNESKGTRESWDS [A12H],3.88
16,STTALGDKCRKANESKGTRESWDS [Q9C],3.37
17,STTALGDKARKANESKGTRESWDS [Q9A],3.38
18,STTALGDKGRKANESKGTRESWDS [Q9G],3.62
19,STTALGDKPRKANESKGTRESWDS [Q9P],3.53
20,STTALGDKYRKANESKGTRESWDS [Q9Y],3.64
21,STTALGDKDRKANESKGTRESWDS [Q9D],3.92
22,STTALGDKQRKANESKGQRESWDS [T18Q],4.03
23,STTALGDKQRKANESKGHRESWDS [T18H],3.79
24,STTALGDKQRKANESKGARESWDS [T18A],4.15

row,Variant,protein stability index
1,STTALGDKQRKANESKGPRESWDS [T18P],3.22
2,STTALGDKQRKANESKGMRESWDS [T18M],3.51
3,STTALGDKQRKANESKGVRESWDS [T18V],4.55
4,STTALGDRQRKANESKGTRESWDS [K8R],4.08
5,STTALGDWQRKANESKGTRESWDS [K8W],4.51
6,STTALGDDQRKANESKGTRESWDS [K8D],4.59
7,STTALGDHQRKANESKGTRESWDS [K8H],3.86
8,STTALGDGQRKANESKGTRESWDS [K8G],4.29
9,STTALGDYQRKANESKGTRESWDS [K8Y],3.11
10,STTALGDQQRKANESKGTRESWDS [K8Q],4.16
11,STTALGDKQRKANESKGTRESWCS [D23C],1.98
12,STTALGDKQRKANESKGTRESWVS [D23V],2.56
13,STTALGDKQRKANESKGTRESWSS [D23S],1.78
14,STTALGDKQRKANESKGTRESWES [D23E],1.82
15,STTALGDKQRKANESKGTRESWFS [D23F],3.93
16,STTALGDKQRKANESKGTRESWQS [D23Q],3.51
17,STTALGDKQRKANESKGTRESWAS [D23A],4.65
18,STTALGDKQRKANERKGTRESWDS [S15R],3.65
19,STTALGDKQRKANEDKGTRESWDS [S15D],4.93
20,STTALGDKQRKANENKGTRESWDS [S15N],4.24
21,STTALGDKQRKANEIKGTRESWDS [S15I],3.71
22,STTALGDKQRKANEFKGTRESWDS [S15F],3.94
23,STTALGDKQRKANEQKGTRESWDS [S15Q],4.03
24,STTALGDKQRKANEVKGTRESWDS [S15V],3.38

row,Variant,protein stability index
1,STTALGDKQRKANELKGTRESWDS [S15L],3.52
2,STTALGDKQRKANEYKGTRESWDS [S15Y],3.64
3,STTALGDKQRKANEWKGTRESWDS [S15W],3.72
4,STTALGDKQRKANESKGTRESWDF [S24F],4.38
5,STTALGDKQRKANESKGTRESWDM [S24M],4.34
6,STTALGDKQRKANESKGTRESWDP [S24P],4.99
7,STTALGDKQRKANESKGTRESWDL [S24L],4.37
8,STTALGDKQRKANESKGTRESWDN [S24N],4.57
9,STTALGDKQRKANESKGTRESWDI [S24I],4.26
10,STTALGDKQRKANESKGTRESWDQ [S24Q],3.84
11,STTALGDKQRKANESKGTRESWDG [S24G],4.89
12,STTALGDKQRKANESKGTRESWDV [S24V],4.62
13,STTALGDKQRKANESKGTRESWDE [S24E],3.93
14,STTALGDKQRKANESKGTRVSWDS [E20V],4.32
15,STTALGDKQRKANESKGTRWSWDS [E20W],4.5
16,STTALGDKQRKANESKGTRNSWDS [E20N],4.68
17,STTALGDKQRKANESDGTRESWDS [K16D],4.96
18,STTALGDKQRKANESCGTRESWDS [K16C],2.97
19,STTALGDKQRKANESEGTRESWDS [K16E],5
20,STTALGDKQRKANESIGTRESWDS [K16I],3.95
21,STTALGDKQRKANESWGTRESWDS [K16W],3.13
22,STTALGDKQRKANESGGTRESWDS [K16G],4.52
